For data set [1], the target named is T1, cICDH (cytosolic NADP-ICDH, At1g65930) (Arabidopsis thaliana, UniProt Q9SRZ6, C363S).
T1 construct: ~90 kDa non-covalent dimer
The data set can be described thus: residual activity after preincubation, NADPH at […] nm. The class given is biochemical. Conditions: 1 mM GSNO preincubation, 25 °C; covalent.

Data set [2] addresses T2, cICDH (cytosolic NADP-ICDH, At1g65930) (Arabidopsis thaliana, UniProt Q9SRZ6).
T2 construct: ~90 kDa non-covalent dimer
As to the kind of experiment: residual activity after preincubation; LC-MS/MS of glutathionylated peptide; biotin switch. The class given is biochemical. Conditions: 15 min at 25 °C before assay; covalent, S-glutathionylation of Cys363 and S-nitrosylation.

Substrate in data set [3]: O=C(O)CC(C(=O)O)C(O)C(=O)O
The data set can be described thus: purified protein. In kind it is biochemical, Arabidopsis thaliana. Conditions: 250 µM NADP+, 5 mM MgCl2, 100 mM potassium phosphate pH 7.5, 25 °C, DL-isocitric acid varied 0-5 mM.

Substrate in data set [4]: NC(=O)c1ccc[n+]([C@@H]2O[C@H](COP(=O)(O)OP(=O)(O)OC[C@H]3O[C@@H](n4cnc5c(N)ncnc54)[C@H](OP(=O)(O)O)[C@@H]3O)[C@@H](O)[C@H]2O)c1
The data set can be described thus: purified protein. The following applies: NADP+ varied 0-1 mM, DL-isocitric acid as co-substrate, 5 mM MgCl2, 100 mM potassium phosphate pH 7.5, 25 °C. In kind it is biochemical, Arabidopsis thaliana.

Data set [5] concerns the molecule itself. As to the kind of experiment: SEC; Superose 12 column, ~10 ug His-ICDH, 50 mM Tris pH 7.5, 5 mM MgCl2, 150 mM NaCl; standards aldolase 158 kDa, conalbumin 75 kDa, ovalbumin 43 kDa; eluted at ~90 kDa against a 48.3 kDa monomer.
Setting [6] is: Table 1 labels the mutant C297S, text and methods say C363S.

Where a chain is given by its changes, count along the chain named. Names and notes keep the numbering of the source.

T1 sequence (Q9SRZ6 whole entry C363S): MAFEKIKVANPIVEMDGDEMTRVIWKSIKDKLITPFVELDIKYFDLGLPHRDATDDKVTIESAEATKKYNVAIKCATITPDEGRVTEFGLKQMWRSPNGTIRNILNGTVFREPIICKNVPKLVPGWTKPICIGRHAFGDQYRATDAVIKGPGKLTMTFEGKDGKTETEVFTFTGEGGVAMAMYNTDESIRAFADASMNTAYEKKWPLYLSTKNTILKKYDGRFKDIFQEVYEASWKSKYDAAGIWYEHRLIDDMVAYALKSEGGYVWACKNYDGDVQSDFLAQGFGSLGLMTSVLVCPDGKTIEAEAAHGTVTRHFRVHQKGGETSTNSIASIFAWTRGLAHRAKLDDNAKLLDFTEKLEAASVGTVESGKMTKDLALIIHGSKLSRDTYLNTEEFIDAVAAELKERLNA

For the molecule `N[C@@H](CCC(=O)N[C@@H](CSN=O)C(=O)NCC(=O)O)C(=O)O` [GSNO], the “activity after 1 mM GSNO” value in data set [1] is reported as “cICDH C363S was found to be less affected by GSNO treatment than the wild-type enzyme”. In addition, the “activity at increasing GSNO” value in data set [2] is “both increasing concentrations of GSNO and GSSG progressively inhibited the cICDH activity”.

B1: cytosolic NADP-dependent isocitrate dehydrogenase (cICDH), recombinant His-tagged (enzyme, Arabidopsis thaliana, UniProt Q9SRZ6 1-410, looked up)
chain: MAFEKIKVANPIVEMDGDEMTRVIWKSIKDKLITPFVELDIKYFDLGLPHRDATDDKVTIESAEATKKYNVAIKCATITPDEGRVTEFGLKQMWRSPNGTIRNILNGTVFREPIICKNVPKLVPGWTKPICIGRHAFGDQYRATDAVIKGPGKLTMTFEGKDGKTETEVFTFTGEGGVAMAMYNTDESIRAFADASMNTAYEKKWPLYLSTKNTILKKYDGRFKDIFQEVYEASWKSKYDAAGIWYEHRLIDDMVAYALKSEGGYVWACKNYDGDVQSDFLAQGFGSLGLMTSVLVCPDGKTIEAEAAHGTVTRHFRVHQKGGETSTNSIASIFAWTRGLAHRAKLDDNAKLLDFTEKLEAACVGTVESGKMTKDLALIIHGSKLSRDTYLNTEEFIDAVAAELKERLNA
notes: cytosolic NADP-dependent isocitrate dehydrogenase, Arabidopsis thaliana, At1g65930; predicted mass 48.3 kDa including the N-terminal His-tag; also called His-ICDH; His-cICDH; source: E. coli BL21, purified (Ni2+-Sepharose); not shown: His-tag, N-terminal, kept
Turning to B1, in data set [3], the Michaelis constant (Km) worked out at 99 µM, the kcat came to 4.93 s⁻¹ and the kcat/Km was determined as 49700 M⁻¹ s⁻¹. Further, in data set [4], the Km came out at 28 µM and the turnover number (kcat) turned out to be 5.81 s⁻¹. Further, the “stoichiometry N” value in data set [5] was 2.

B2: cICDH (cytosolic NADP-ICDH, At1g65930) (Arabidopsis thaliana; C363S) (protein)
chain: B1 chain with C363S
notes: ~90 kDa non-covalent dimer
Take B2: in data set [3] (setting [6]), the Km turned out to be 95 µM and the kcat was found to be 4.31 s⁻¹.

As a reminder, the Km is the substrate concentration at which the rate is half of its maximum. As a reminder, the kcat is the maximal rate divided by the concentration of active sites. Broadly, the kcat/Km is the second-order rate constant that governs catalysis at low substrate concentration. Broadly, the stoichiometry N is the number of molecules, sites or subunits per partner or assembly.

These data come from publication PMC6356969, “Cytosolic Isocitrate Dehydrogenase from Arabidopsis thaliana Is Regulated by Glutathionylation” (Antioxidants, 2019).
